The record followed here is the supplement of paper PMC12636428.

This data set has as its system Saccharomyces cerevisiae. The experiment in a line: transcriptional activation domain activity (GFP:mCherry ratio, weighted mean of sorted bins, harmonized to initial dataset scale) (arbitrary fluorescence ratio units); higher = stronger transcriptional activation. The conditions noted are these: beta-estradiol 1 µM; induction time 4 h. Here is the method:
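53-aa protein tiles (fungal proteins plus yeast TF control tiles) fused C-terminally to a DBD-estrogen-binding domain-mCherry synthetic TF, integrated in S. cerevisiae (URA3 locus) with a GFP reporter. Cells were induced with 1 uM beta-estradiol for 4 h at 30 C, FACS-sorted into 8 bins by GFP:mCherry ratio and barcodes sequenced. Activity is the read-weighted mean bin fluorescence (GFP:mCherry), averaged over barcodes (median 12); tiles under 50 reads were discarded. New active-learning values were harmonized by linear fit onto the scale of the initial (Hummel et al.) dataset. The assay saturates at low and high signal.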

With “MHTHAVTRSLFLYFLLNFFFIFFLLLEGFGLLLDFSFFFVLFRLDSLSLLFVF”, the “transcriptional activation domain activity” value came out at 76000. Turning to “SLAVRTGAELGQDASMDDAEARNMDGNLDVDLAELSLGQRLTAVNGTEGAGRS”, the “transcriptional activation domain activity” value stood at 19700.

On to “GLAIIRWQRGFRDYDNVTFKRFDYEVGMSILGWAFHYFPFFLMARQLFLHHYL”, for which the “transcriptional activation domain activity” value is 52400. For “LYEHLDEDHRLLWSYLSRLGSYVFQPEIPDLTLYLSELKTVIRCFLNQLIKIS”, the “transcriptional activation domain activity” value stood at 56700.

Take “LRGGYTCQLNGTPKNPDLQVWLQLNLIAYFSFLDTRACDGKTASITGSAEMPF”: the “transcriptional activation domain activity” value amounted to 51900. With “GGEDALGRAAEEEGVRSGGLSSEQQDREEARGEARDRQHRVACFGGRRECAGG”, the “transcriptional activation domain activity” value is 48500.

Take “MLHPTIVYPFITHLLLLILLFSLLPRFSYDADMDFLLVFSSFVLLLCFPWFED”: the “transcriptional activation domain activity” value was found to be 40400.

As to “LLLLLDRFIDRNHLLDHIKIGTSDLLNLPGQRSIYISRLCRAICILGYNVNND”, the “transcriptional activation domain activity” value turned out to be 30400. Under “PTGRSSTPTSASSTRARRTRGSASARSSRAAGGGSCSSTCRSPPGRVPRTSVS” stands 36800; under “MVQNWEFFVFFFRFVKFTCVQCGLWCGSPGKLLGLFLFLVCCVLFFFFFFLVE”, less than 6570; under “QYRYLTYSRWLVLLLYVFSWAFTVISMVLVTTNNANFVSCLLSILVCDVFYSG”, 39300. To “MTISSPYCLFRCVAYGPWQTLSVLFCFFFFLLLFLSPSLHHLFYFLSLDFFSY” belongs 55500. On to “LFYNQVSKLLIINCYEASYMCVIYTVGSIGNIGSRCQNLRTGSTFKTLVKYID”, for which the “transcriptional activation domain activity” value was found to be 54000. Regarding “FEFQHTRLYMAFRELEGKLLPCLIEANGLDLVIATLLSVVEKVTEVSNIRLTS”, the “transcriptional activation domain activity” value is 35600. Consider “LPTNPTTHPLLFSAIHFFIYNVGDLLGRYICSFSCFIIWSQPMLLGLSLARVV”, for which the “transcriptional activation domain activity” value stood at 77600. Under “MEWLLHTVYVVAIKDTRAWGGFSPFQMSMVGYFNLKLIWLKLLIIWRFFRLWA” stands 76000; under “MMDCGRRTSFQAFIFLSLFLVHQVSFCCVYLICFFFFLFFLSFLYSFPFPFFF”, 26400; under “MHSDMYLHPTLLSFLSVQFSMGFLFFLCRRYLYFSEWLLVVLCVFVSRFIGFI”, 38400. Take “HKEASDKENTGSGQAQKNNKVKANTGARVKDEQEAKKKVGRPKKGTEAGTGAG”: the “transcriptional activation domain activity” value was determined as 39500.

As to “GGVAAREAKRKGRGRGEEEGRGAVCGGRGARGGARGRGGGGGRTGRAGGARAL”, the “transcriptional activation domain activity” value turned out to be 23500. Under “MHAFQAGRDMPLVRRRSGGCLESDGGGEERVLRCETEECMSKEGVVSVGAGAD” stands 35500. As for “MLLSIWCHHFTFLFFFFFFFDHRFFCFFYSHLFYAVSYSFLLLLLLLYELLLV”, the “transcriptional activation domain activity” value is 47100. For “LSRVTGKEHDQMCRIVLGILVDLRLPDNQNPTRLIWAVRALLDFLYLAQYPIH”, the “transcriptional activation domain activity” value turned out to be 67200. Consider “GVEGQGKRTRAGKKRRIVLRERQRKRVKEEEERKKKGEEKEGREREKRVRRNR”, for which the “transcriptional activation domain activity” value was 46700. In the case of “NFLLNVSVVTRWFLFIVPVLGLLWIPGILSVTSFPNATVWSVRLLWWSIWLTV”, the “transcriptional activation domain activity” value came out at 63900. In the case of “KEGMGWVDVLFSVCTSIILVQLVFVLGWWLLFLFLSMYHMLTFCIIIFILYKY”, the “transcriptional activation domain activity” value stood at 53300. In the case of “AYAVMVVIQSLFLCLFGMAFQFSFFLNANFVVVYSIFVLYGWAMICFALFLST”, the “transcriptional activation domain activity” value stood at 46800. As for “FHFHLHSSISFPFPSLSLPFPFFPTSSSSSSPFLLHLFPFPSLFFPLLLLLLF”, the “transcriptional activation domain activity” value came out at 56400.

For “IIAAKPEVLVKEEAAVKEEVPKAAAAKPKAKGKGKGKGKGKKVAEKKPEPVAE”, the “transcriptional activation domain activity” value is 22400. Take “GGTASPPPPPDNRPPEERYAEQLRQLNDMGFFDFDRNVEALRRSGGSVQGAIE”: the “transcriptional activation domain activity” value came out at 28300. “EDKAAEDGAAKKPKTTELPGGVKIQDMKVGSGPQAKPGKKIGMRYIGKLQGSN”: the “transcriptional activation domain activity” value was 30600. On to “NTTTPDAAEGDAEGEDSASASGSGSEGKGGEGEEKTGKKGKKGRKGKLLQRLK”, for which the “transcriptional activation domain activity” value stood at 29500. In the case of “TTTTAADDADTDSKKEKEKEQAAVKVKVKEKEKEKRVLVHCCMGRSRSGAVVV”, the “transcriptional activation domain activity” value was found to be 20200.

Regarding “MTLITIIDLESFIFEDCIDLILFSQFLDSFQHSAVLTAYINWYTNADWWRSIV”, the “transcriptional activation domain activity” value came out at 66900.

Regarding “TGPTNVGLIILIIVSFFQFNFFLPVHQSFAPKLLKHHYIIYRMICSQLSYLVL”, the “transcriptional activation domain activity” value came out at 60900.

For “VRRVLLMVPDWFIIFGYRWYRALGLLKTVCPWWTSIINSSSVFYSMLWVDPSV”, the “transcriptional activation domain activity” value came out at 90900. In the case of “MCTLKLLVLLRIYFPTYISFPFFSPSLLSKCHSFISFSYVPWSLVTFLIYLPS”, the “transcriptional activation domain activity” value came out at 75600. “PDYLFSRLFVCAFISLFVSLSFLQLGNGLRDLQFRVFSIFWVSILPAIIMSQI”: the “transcriptional activation domain activity” value turned out to be 52200.

Consider “ILSPTLFLLFSSSPLPLLFYPHFPFLVLTSYFLLLLYSSVSLFIAFLHSLFLI”, for which the “transcriptional activation domain activity” value was 41300. In the case of “AWPLHLTLGKIPKSIRYQDYHRACRVLAYFPIIHVKGGIIRPAWWWSHCKKLI”, the “transcriptional activation domain activity” value was 36300. As for “MPNDWFIYGCIFLECYISYGVYIRVWFLLMDFVLGPISHLSIYFLWIWFILLC”, the “transcriptional activation domain activity” value came to 66900. “ASTETPLPVPKRRGRPPKNNNAAGIVVFDGGEEAPAVKKRGRPKKVTEPVAST”: the “transcriptional activation domain activity” value is 23100. As for “MLSRCFKCPYGAWGVIIFFIFFFYFFLNIPFFFVYYYLLFFVCSFFSFFFHFI”, the “transcriptional activation domain activity” value is 38600. Under “RYIATGRGFATTRISFSILFSRFAGPSIYLGMRTLLMLLYVTLSFWTPYLIYF” stands 54700; under “MHLQGFVAWMFYILNCLAFSLRIISHWIFPIYLIWGIGLVENDYSSIDSWFLL”, 42100; under “LIVVFAQSKIDSDEASVPVDEELNGVSLLVRILSDSAGRIYMIVTLELLLKRN”, 53600.

With “VSFDFPRSPYPNGSFESFLRDIFARCNLLEVLVFRTKVKSLRGWLKHYTYFAD”, the “transcriptional activation domain activity” value was 75400. For “MRDISTLTVCCPLLFFLNLLHFLCFSLCFSLTYFINCLTFLLFLYISFFIKLF”, the “transcriptional activation domain activity” value turned out to be 42800.

On to “EPERKQSRRRQSRGRGRKGVADSDTESVPRSDVSASGGRRNRQRQRQKGGKQQ”, for which the “transcriptional activation domain activity” value stood at 48900. With “MLWGDTQILVVLLHYILPTYQFPRFYFYYMYLPLRSWLLVDNPFLFSYSALIQ”, the “transcriptional activation domain activity” value worked out at 63200. For “MCGGSFSLHRLHFFFIYVCFFCFVLSCLFTLAYWVVLYYARLVMGFWWFWWFG”, the “transcriptional activation domain activity” value is 58300. With “MRRLGWVGVSGLVSFLFTSFFFLVSFFLLLLLLLLTHFSFLFFFFAFTFILMM”, the “transcriptional activation domain activity” value turned out to be 45500. Regarding “EPAEEDSKPEEPAAAAEPEAEVKEEPAEEPAAPAEPKAEAEPEKADETPAAEA”, the “transcriptional activation domain activity” value was 24000. For “LGVLLLLLLYANVVLLIYHAPTTRKPFDLAFIHAPVRAFMLLPLTILFPYSLF”, the “transcriptional activation domain activity” value is 57300. For “HINYFSLSLIIFYFLIFFISNYLLIKFLFFNYFLPKWWSSRPLRSMIYSLFSI”, the “transcriptional activation domain activity” value was determined as 42500. Take “LCRLWGAWGLFTFGLGVLLSAINMRMVLFYRVFITVNLTARSNSKIVNFFRKF”: the “transcriptional activation domain activity” value came to 51100. Take “GALRLAASQEGIKLGDDVKSNVKMVLGKDAQGGFAVSAEVTVSGNGVTKALVD”: the “transcriptional activation domain activity” value was 31300. As for “VDNQFLSTRSIVTEACRKRGIYLTWIDSDPDILNYLQLSTFQFIVLLMLPLTP”, the “transcriptional activation domain activity” value is 42900.

As to “TSTKKTTTTKKATSTKSATATSSCTKYTVKKGDTCSSIASKVGGTTAAKIISK”, the “transcriptional activation domain activity” value was 34000. Under “MFALLEILCLICILLLTKPRCLCFSIRLEILIFFSFFFFFFCIFLVGYTLSTL” stands 80600; under “KEVKEGEEGEKPKRGRKRKEAPAENGEEKEEKEPAAKKAKPASKAAPGSKPAS”, 12700. On to “MLMHASPRMPIVQIFFFIFIHLSPPPFPFFFSLILSHRYSISFFLSLFSLLYF”, for which the “transcriptional activation domain activity” value was found to be 35800. As to “SSSSTPSAFSSATPSSLFGSGASSTAKPFGSAASPSPFGAAKSSPSLFGSGGG”, the “transcriptional activation domain activity” value was 69900. Under “MERNGNVVWILFWHFHLLFFWAMEKSFDFLHSKTLSPFWFITYFLYLLILFYL” stands 31900. As for “MYFASYIFISFFSLFISIIHPFKIYYILLYTHHIIISIQLLLPFHFLTSIILS”, the “transcriptional activation domain activity” value came to 80300. As to “APPSSKPSPPPTSAASPAAPRAASPRPRAASSAGCRPRRGATRCCSRARASRS”, the “transcriptional activation domain activity” value worked out at 39400.

As to “MSASPPTGSGGTDERQRQRVTRACEPCRRKKIRCDGRKPCSACADAQAGNGCA”, the “transcriptional activation domain activity” value amounted to 34300. To “MLYYYHYLAVQSGLKRKYAFKNMYLCLLLYSLFFVFASINIVHLIKWQCYFFV” belongs 45800; to “SASSPAATSPSACPTSSPRLRSPSSPSPSSQPPASPCTRSCPPPRPAARTARP”, 47500.

As for “TRKLVFKWPYVPYLLGRYTMICCLLFVWVLLVNPIDCVHNELFIALVACMAVC”, the “transcriptional activation domain activity” value came to 22500. Regarding “PILLILLLLHVGFFGGYYFVICLGGLFDVCLSQLLVYKWQSFGFYWRIVVFLW”, the “transcriptional activation domain activity” value was 78100.
